Assay: soluble on expression in E. coli; label from the status in PepcDB or PDB records

Soluble on expression in E. coli, soluble:
MKVNKFITIYKDIAQQIEGGRWKAEEILPSEHELTAQYGTSRETVRKALHMLAQNGYIQKIRGKGSVVLNREKMQFPVSGLVSFKELAQTLGKETKTTVHKFGLEPPSELIQKQLRANLDDDIWEVIRSRKIDGEHVILDKDYFFRKHVPHLTKEICENSIYEYIEGELGLSISYAQKEIVAEPCTDEDRELLDLRGYDHMVVVRNYVFLEDTSLFQYTESRHRLDKFRFVDFARRGK, MKVTKSEIVISAVKPEQYPEGGLPEIALAGRSNVGKSSFINSLINRKNLARTSSKPGKTQTLNFYIINDELHFVDVPGYGFAKVSKSEREAWGRMIETYITTREELKAVVQIVDLRHAPSNDDVQMYEFLKYYGIPVIVIATKADKIPKGKWDKHAKVVRQTLNIDPEDELILFSSETKKGKDEAWGAIKKMINR, MKVVQRKIKKSGKDRKRIGRGGSAYILDKRRITAVQNMKREAEKEKLRERFAAAANMPKDVVLGASVVTVIGNGEISIENYRGILEYTGELIRVQTKKGQIQVHGKGLQIEYYLNDEMKITGKIHTLEYEMLEHHHHHH, MKYNATKAISIAPPTIPTVNPTINEVFSFELLELELEEEEDKLLSCESDCFAQYVDGHLSHVNEVITQYSPEAQTGHDAVESQTTHPSLPLVAEVEEVAVLDKDELAEALEELDIFCLIFRKRT, MLAVGIVGLPNVGKSTLFNALTRANALAANYPFATIDKNVGVVPLEDERLYALQRTFAKGERVPPVVPTHVEFVDIAGLVKGAHKGEGLGNQFLAHIREVAAIAHVLRCFPDPDVVHVMGRVDPLEDAEVVETELLLADLATLERRLERLRKEARADRERLPLLEAAEGLYVHLQEGKPARTFPPSEAVARFLKETPLLTAKPVIYVANVAEEDLPDGRGNPQVEAVRRKALEEGAEVVVVSARLEAELAELSGEEARELLAAYGLQESGLQRLARAGYRALDLLTFFTAGEKEVRAWTVRRGTKAPRAAGEIHSDMERGFIRAEVIPWDKLVEAGGWARAKERGWVRLEGKDYEVQDGDVIYVLFNA, MLDANKLQQAVDQAYTQFHSLNGGQNADYIPFLANVPGQLAAVAIVTCDGNVYSAGDSDYRFALESISKVCTLALALEDVGPQAVQDKIGADPTGLPFNSVIALELHGGKPLSPLVNAGAIATTSLINAENVEQRWQRILHIQQQLAGEQVALSDEVNQSEQTTNFHNRAIAWLLYSAGYLYCDAMEACDVYTRQCSTLLNTIELATLGATLAAGGVNPLTHKRVLQADNVPYILAEMMMEGLYGRSGDWAYRVGLPGKSGVGGGILAVVPGVMGIAAFSPPLDEDGNSVRGQKMVASVAKQLGYNVFKG, MLDINLFREEKGNNPEIIRESQRRRFASVEIVDEIIKLDKEWRQRQFEVDSFRKEFNKLNKQVAQLKIKKEDASEIIQQTEKNKQDSTAKEAEVREAYAALKAKLEQVGNLVHDSVPVDKDEANNLVIKLWGEKRFSTPGLKLKNHVDLVELLGIADTKRGAEIAGARGFFLKGDGLMLNQALINFGLTFLKKRGFTGLQPPFFMRKDVMAKCAQLAQFDEELYKVTGEGDDKYLIATAEQPLCAYHIDEWIHPTELPLRYAGYSSCFRKEAGSHGRDTLGIFRVHQFEKIEQFCITGPNENASWEMLDEMMKNSEDFYQALKLPYQIVSIVSGALNDAAAKKYDLEAWFPSSETFRELVSCSNCTDYQARRLEIRYGQKKSNEQTKQYVHMLNSTLTATERTICCILENYQREDGVDIPEVLQPFMGGETFLPFKAKPVVADTKGKKSKA

Soluble on expression in E. coli, not soluble:
MKVPPKKKFLGNSEHPGDLLTQTSKCECQLASVYGNGRVPVKNKKATNAYFQQSIPSWSDTLRMTRQNKKQRGRRRWKKNRKKRRVKTG, MKVTAMDIYKLLPKTNCGKCGEASCMAFAAKLSQKEAELSACPQLKGADFEKLANMLAPAVREIKIGTGDRAVTIGGDEVLYRYELTYYNPTAVAVDLSDDMDDSAFDQKLVKIKNLEFERTGEILKLNAVALRNKSGDAEKFKKAAEKLKDSEIPVILCSFDPKAMDAALDVIGSKRPLIYAATENNIDEMSELALKHNCPISLFVPNDLEKMKQLSRKLRESGVKDIVLDPGTYIGEAIGDTMDNFIMIRRLAVEEKDDDFRFPILAVPAVCWINPEEDEILTKMKEATTAAALMNRYADVMILHGVDIWEMMPVLTLRQSLYTDPRKPQSVEAKIYEFGTVDENSPVIMTTNFALTYYTVAGDLKSGKVNCYLLVLDTNGKAVDVAVAGGQFNGKAAAELMKETGIEKLVNHKKLIIPGLAASVSGDIEDQSGWEVIVGTRDSSEVPAFLAKIW, MKYFFETRLGETRYRLADGSLLCKDVPIGRTGKQLYGADDLPKLKPDKFVEIVVTRSPEQVFHPATLASFEGMSITILHPEDENGNVRLVNPENWKVLAVGHLQNVRRGTGEQSDLMLADLIVKDESAIQLIEDGLREVSCGYDAEYEQTEPGKAEQVDITGNHVALVPKGRAGNRCAIGDRDTMANQKKNWWNRMRAAIKTGDADTMNELVESAPASVTGDEGDLPQGVNLNINLSPQQPLPDKAPEMGGDPTGDSDDDLKTLLKALLAKLERNATGDNDNKPDDNPTGDGEDDEEETTITGDSAWRAEVIVPGIDLSRKMKPTAFKREVLASADKTLVRQIVGDADIRKLPKQSVDMAFNAVSEVAKGRNTRATTGDAQRLNMGMTSIASLNKQNAEFWANRKG, MKYMVVSSPIQEVLRLHKYIEISTTTITVKITNKMSSPVIGITFGNTSSSIAYINPKNDVDVIANPDGERAIPSALSYVGEDEYHGGQALQQLIRNPKNTIINFRDFIGLPFDKCDVSKCANGAPAVEVDGKVGFVISRGEGKEEKLTVDEVVSRHLNRLKLAAEDYIGSAVKEAVLTVPTNFSEEQKTALKASAAKIGLQIVQFINEPSAALLAHAEQFPFEKDVNVVVADFGGIRSDAAAIAVRNGIFTILATAHDLSLGGDNLDTELVEYFASEFQKKYQANPRKNARSLAKLKANSSITKKTLSNATSATISIDSLADGFDYHASINRMRYELVANKVFAQFSSFVDSVIAKAELDPLDIDAVLLTGGVSFTPKLTTNLEYTLPESVEILGPQNKNASNNPNELAASGAALQARLISDYDADELAEALQPVIVNTPHLKKPIGLIGAKGEFHPVLLAETSFPVQKKLTLKQAKGDFLIGVYEGDHHIEEKTLEPIPKEENAEEDDESEWSDDEPEVVREKLYTLGTKLMELGIK, MKYRITTWLAAALMLSSLHATAASLSDIQVSNGDQQARITLSFVGEPEYSFTPQGKRLVALDIKQTGVLQGLPLQFSGSNLVKSIRAGTPQDTQTLRLLVDLTEDGKTRAVKQQNGANYTVVFTINAEAPPPPVVVKRADPPPVMPSRTTTPGRNPFSSSGHERQTVMTSSQPAMTNNQTVTRPAARTVSADDKVIIAIDAGHGGQDPGAIGPNGTKEKNVTIAIARKLRALLNADPQFKPVLTRDGDYFISVMGRSEVARKQNANFLVSIHADAAPNRDATGASVWVLSNRRANSEMAGWLEQHEKQSELLGGAGDVLANSQADPYLSQAVLDLQFGHSQRVGYDVATNVLSQLQRIGNLHKRRPEHASLGVLRSPDIPSILVETGFISNNGEERLLGSDDYQEQIAEAIYNGLRNYFMQHPLQSAPRGEAAQTASAAAPGGMLIN, MKYSSFLKQAEENLVPIFSEIDAKVKENLYKVIEAFRHHRVGVQHFAGVSGYGHDDLGRDTLDGVFAQVMGAESAAVRVQFVSGTHAIACALYGILRPGDELLSAVGSPYDTLEEVIGLRGSCQGSLADFNISYRQLPLTAAGTVDWQGLETAVRPETRLVLIQRSCGYSWRPSLAIADIARIIEIVKAQNPRTLCFVDNCYGEFIETVEPTAIGVDLMAGSLIKNPGGTIVTAGGYLAGKEEWVEAGAYRLTAPGIGLEHHHHHH, MLAARGFFKSTRISNRFFAKKSVKNLTNDDVDVLTNPSDEYVDSFMKYHGNGRAVFKREDLAQWRDSFPDYKFKVISLKGAPRVIATAHLCTFRPIDPSINKSIMFMGFGWIDPGFRSPGTAKLQNDMCRVEMDREDDNIVSQINQPAKNFWHKLSKRKEFLDLGHKAGDVGYKTFYSAHDVVLPENLDLSGITVKNAREVPKRDIINYDQTIHPYHREKYIISHMYDRDGFGKVAYDEEGNVIGIGQAVIYENRKDCNLGPIYAENTRVAQAMFAEILKDIKASEKTVVSFEVRSGQLNKDSFCWLTPFLTHKPTRSHVCNLVYTDCVPENIDFSKVYSPTHAQLFMV, MLALSRGRYLARPAAGLEDLRRAQELRWLAFHARRAGSGASGLDADRFDGACSHMLIEEAESGALVGCFRFLTFASGREIGRSYSAQFYELSALEGFAGPMVEMGRFCIHPDRRDPDILRVAWGALTQHVDRAGIEMLFGCSSFHGTEPEAYLDTFAMLKERHLAPPRWLPRVKAASVYRFAQRLARREPDARRAMLQMPPLLRTYLMMGGWVSDHAVVDREMDTLHVFTGLEIGAIPARRARALRAVAG, MLANFSQKAQETLVGELEELVSTTNLKGVITYCNDAFCRVAEYTHEELVGQNHNIVRHSDMPKAAFGDMWARLKEGKAWRGMVKNSTKSGGYYWVDAYVTPIYEKNQVVGYQSVRVKPKREWVDIAAKAYKGMLAAEKAGRTWSLKINETVRYAILLGALTAPAVAYALSVEGPLAWLASALPASVLALLFRQELIDTPQQLKKLQKQYDSVSRLIYSGNSAFSIADFHIKMLSARIRTVLGRMTDSALPLQNCAEELSQTTSEVSAALNQQNSDIRRVRDATQEVESSANSVSSSTNDAHMLIDDTLKSCMMAKETIDQTHTNLAQLSLQA, MLARSDRLSVVAVVEGTRKQPDPATFIGKGKAEEISQILAQTHAAMVIFNHELSPVQQRNLSMVLACRIIDRTSLILEHHHHHH, MLDDCEASGFINDKRYAELLVRSNIARGHGPIRIRQAIAQKGLTKDCIEAALIATDYDWFELAKAKAKAKAIKKYGVPKVTEVKGSQSRELIAKEKAKRVRFLLSQGFSYEQVIYALDYDPLEDNDD, MLDDVLALIREHDRFFITTHLGPDGDAVGSQLALGRFLEKMGKSVAMVNADEVDYNLDWMPGAGDIAVFDGSLGQHEALAEAEVAFVLDTNDEERIGKVGSLVRDATATTVLVDHHLEPEHWFDVFFVREEAAATGELVYEIIDGLAPDLIDEGIATALYTAIMTDTGSFRYSSVTPALHRSVADILERGGIGPAPIHETIYDRKSMPGLRLLGRMLNRIRLRYNGQLGYSVVTQRMVEDTGASWDDKQGFVNYVLSIEDVKTALLFSETDDGAKISFRSEADVRVDQWARHFGGGGHRNAAGAYVKRPTFEKTIETVIDAASDYIAFDARHAPDDDLSPEDQSYLETLLDDPSDSPLEHHHHHH, MLDHNRLEEFIEQIRLTPAIWKNREFDISREHMNEIWAHFGHTFDISPKEAEMQWEYLIRLHRFMNRNASLEQFRIEVPSLEDDFTPADTLVAESLAIFLKPTLDELLLISKPSETSV, MLDKIIEIIMTILPFLGNRKKRKAMAQDVKEFSELVKDQYTFLMEQLEKVLKDYFDLSARVKEMHTEIFSLREQLAQAATLQCVNKECLQRTQSEASISEA

— the DeepSol protein solubility set
